From the supplement of paper PMC10567573

B1: WDFY1 (parent)
chain: FWNIKQMWDTKTLGLRQHHCRKCG

Variants of: B1
Experiment: protein stability index of a GFP-peptide fusion (GPS, HEK-293T) (PSI 1-6); higher = more stable
Settings: c terminus: a fixed tail appended
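Also: lentivirally expressed fusions sorted by FACS into six bins by GFP to DsRed ratio, PSI derived from sequencing read proportions per bin multiplied by bin number.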

Variant | protein stability index
FWNIKQMWDNKTLGLRQHHCRKCG | 2.04
FWNIKQMWDSKTLGLRQHHCRKCG | 2.18
FWNIKQMWDCKTLGLRQHHCRKCG | 2.11
FWNIKQMWDPKTLGLRQHHCRKCG | 2.28
FWNIKQMWDRKTLGLRQHHCRKCG | 2.06
FWNIKQMWDMKTLGLRQHHCRKCG | 2.16
FWNIKQMWDYKTLGLRQHHCRKCG | 1.41
FWNIKQMWDAKTLGLRQHHCRKCG | 1.48
FWNIKQMWDDKTLGLRQHHCRKCG | 2.56
FWNIKQMWDGKTLGLRQHHCRKCG | 1.89
FWNIKQMWDTKTLGLRHHHCRKCG | 1.83
FWNIKQMWDTKTLGLRFHHCRKCG | 1.88
FWNIKQMWDTKTLGLRIHHCRKCG | 1.81
FWNIKQMWDTKTLGLRNHHCRKCG | 2.14
FWNIKQMWDTKTLGLRYHHCRKCG | 1.98
FWNIKQMWDTKTLGLREHHCRKCG | 2.56
FWNIKQMWDTKTLGLRRHHCRKCG | 2.75
FWNIKQMWDTKTLGLRPHHCRKCG | 2.13
FWNIKQMWDTKTLGLRTHHCRKCG | 2.12
FWSIKQMWDTKTLGLRQHHCRKCG | 1.61
FWFIKQMWDTKTLGLRQHHCRKCG | 1.96
FWCIKQMWDTKTLGLRQHHCRKCG | 2.56
FWAIKQMWDTKTLGLRQHHCRKCG | 1.56
FWMIKQMWDTKTLGLRQHHCRKCG | 2.23

Variant | protein stability index
FWDIKQMWDTKTLGLRQHHCRKCG | 2.02
FWPIKQMWDTKTLGLRQHHCRKCG | 2.57
FWWIKQMWDTKTLGLRQHHCRKCG | 2.85
FWNIKQMWDTKTLGLRQVHCRKCG | 2.02
FWNIKQMWDTKTLGLRQKHCRKCG | 1.89
FWNIKQMWDTKTLGLRQSHCRKCG | 2.58
FWNIKQMWDTKTLGLRQMHCRKCG | 2.27
FWNIKQMWDTKTLGLRQDHCRKCG | 2.92
FWNIKQMWDTKTLGLRQAHCRKCG | 1.84
FWNIKQMWDTKTLGLRQIHCRKCG | 2.01
FWNIKQMWDTKTLGLRQHHCMKCG | 1.71
FWNIKQMWDTKTLGLRQHHCFKCG | 1.85
FWNIKQMWDTKTLGLRQHHCTKCG | 2.62
FWNIKQMWDTKTLGLRQHHCCKCG | 2.12
FWNIKQMWDTKTLGLRQHHCDKCG | 2.8
FWNIKQMWDTKTLGLRQHHCEKCG | 2.07
FWNIKQMWDTKTLGLRQHMCRKCG | 1.92
FWNIKQMWDTKTLGLRQHSCRKCG | 2.13
FWNIKQMWDTKTLGLRQHACRKCG | 2.14
FWNIKQMWDTKTLGLRQHNCRKCG | 2.23
FWNIKQMWDTKTLGLRQHGCRKCG | 1.63
FWNIKQMWDTKTLGLRQHTCRKCG | 1.59
FWNIKQMWDTKTLGLRQHPCRKCG | 2.66
FWNIKQMWDTKTLGLRQHICRKCG | 2

Variant | protein stability index
FWNIKQMWDTKTLGLRQHHGRKCG | 1.87
FWNIKQMWDTKTLGLRQHHWRKCG | 2.06
FWNIKQMWDTKTLGLRQHHIRKCG | 2.17
FWNIKQMWDTKTLGLRQHHVRKCG | 2.2
FWNIKQMWDTKTLGLRQHHRRKCG | 2.4
FWNIKQMWDTKTLGLRQHHNRKCG | 2.52
FWNIKQMWDTKTLGLRQHHFRKCG | 2.41
FWNIKQMWDTKTWGLRQHHCRKCG | 2.01
FWNIKQMWDTKTEGLRQHHCRKCG | 2.56
FWNIKQMWDTKTYGLRQHHCRKCG | 2.67
FWNIKQMWDTKTNGLRQHHCRKCG | 1.96
FWNIKQMWDTKTFGLRQHHCRKCG | 2.2
FWNIKQMWDTKTDGLRQHHCRKCG | 1.7
FWNIKQMWDTKTGGLRQHHCRKCG | 2.01
FWNIKQMWDTKTPGLRQHHCRKCG | 2.22
FWNIKQMWDTKTRGLRQHHCRKCG | 2.29
FWNIKQMWDTKTLGCRQHHCRKCG | 1.75
FWNIKQMWDTKTLGHRQHHCRKCG | 2.43
FWNIKQMWDTKTLGMRQHHCRKCG | 1.79
FWNIKQMWDTKTLGVRQHHCRKCG | 2.35
FWNIKQMWDTKTLGPRQHHCRKCG | 1.55
FWNIKQMWDTKTLGKRQHHCRKCG | 2.14
FWNIKNMWDTKTLGLRQHHCRKCG | 2.22
FWNIKFMWDTKTLGLRQHHCRKCG | 2.36

Variant | protein stability index
FWNIKKMWDTKTLGLRQHHCRKCG | 2.13
FWNIKLMWDTKTLGLRQHHCRKCG | 1.47
FWNIKIMWDTKTLGLRQHHCRKCG | 2.45
FWNIKWMWDTKTLGLRQHHCRKCG | 1.79
FWNIKPMWDTKTLGLRQHHCRKCG | 1.97
FWNIKTMWDTKTLGLRQHHCRKCG | 2.04
FWNIKQMWDTKTLCLRQHHCRKCG | 2.27
FWNIKQMWDTKTLNLRQHHCRKCG | 2.08
FWNIKQMWDTKTLYLRQHHCRKCG | 1.48
FWNIKQMWDTKTLQLRQHHCRKCG | 2.54
FWNIKQMWDTKTLPLRQHHCRKCG | 2.11
FWNIKQMWDTKTLHLRQHHCRKCG | 1.85
FWNIKQMWDTKTLELRQHHCRKCG | 2.44
FWNIKQMWDTKTLILRQHHCRKCG | 1.87
FWNIKQMWDTKTLTLRQHHCRKCG | 2.68
FWNIKQMWDTKTLGLRQHHCRCCG | 1.7
FWNIKQMWDTKTLGLRQHHCRGCG | 1.82
FWNIKQMWDTKTLGLRQHHCRMCG | 1.03
FWNIKQMWDTKTLGLRQHHCRFCG | 3.26
FWNIKQMWDTKTLGLRQHHCRYCG | 2.2
FWNIKQMWDTKTLGLRQHHCRVCG | 1.41
FWNIKQMWSTKTLGLRQHHCRKCG | 2.02
FWNIKQMWCTKTLGLRQHHCRKCG | 1.53
FWNIKQMWFTKTLGLRQHHCRKCG | 1.7

Variant | protein stability index
FWNIKQMWQTKTLGLRQHHCRKCG | 1.5
FWNIKQMWGTKTLGLRQHHCRKCG | 1.73
FWNIKQMWKTKTLGLRQHHCRKCG | 1.33
FWNIKQMWYTKTLGLRQHHCRKCG | 1.89
FWNIKQMYDTKTLGLRQHHCRKCG | 2.6
FWNIKQMTDTKTLGLRQHHCRKCG | 2.52
FWNIKQMLDTKTLGLRQHHCRKCG | 1.76
FWNIKQMEDTKTLGLRQHHCRKCG | 2.44
FWNIKQMDDTKTLGLRQHHCRKCG | 3.27
FWNIKQMIDTKTLGLRQHHCRKCG | 1.75
FWNIKQMSDTKTLGLRQHHCRKCG | 3.12
FWNIKQMVDTKTLGLRQHHCRKCG | 2.15
FWNPKQMWDTKTLGLRQHHCRKCG | 2.55
FWNRKQMWDTKTLGLRQHHCRKCG | 1.45
FWNFKQMWDTKTLGLRQHHCRKCG | 1.54
FWNEKQMWDTKTLGLRQHHCRKCG | 3.05
FWNQKQMWDTKTLGLRQHHCRKCG | 3.12
FWNKKQMWDTKTLGLRQHHCRKCG | 2
FWNTKQMWDTKTLGLRQHHCRKCG | 2.14
FWNNKQMWDTKTLGLRQHHCRKCG | 2.13
FWNSKQMWDTKTLGLRQHHCRKCG | 1.95
FWNIKQMWDTKTLGLRQHHCRKDG | 2.82
FWNIKQMWDTKTLGLRQHHCRKNG | 2.57
FWNIKQMWDTKTLGLRQHHCRKPG | 2.19

Variant | protein stability index
FWNIKQMWDTKTLGLRQHHCRKRG | 2.09
FWNIKQMWDTKTLGLYQHHCRKCG | 1.6
FWNIKQMWDTKTLGLHQHHCRKCG | 2.5
FWNIKQMWDTKTLGLWQHHCRKCG | 1.14
FWNIKQMWDTKTLGLCQHHCRKCG | 1.59
FWNIKQMWDTKTLGLNQHHCRKCG | 2.1
FWNIKQMWDTKTLGLGQHHCRKCG | 1.64
FWNIKQMWDTKTLGLKQHHCRKCG | 2.89
FWNIKQMWDTKTLGLVQHHCRKCG | 1.88
FWNIKQMWDTKTLGLRQHHCRKCC | 2.22
FWNIKQMWDTKTLGLRQHHCRKCR | 2.35
FWNIKQMWDTKTLGLRQHHCRKCA | 1.84
FWNIKQMWDTKTLGLRQHHCRKCN | 2.09
FWNIKQMWDTKTLGLRQHHCRKCP | 1.88
FWNIKQMWDTKTLGLRQHHCRKCD | 2.15
YWNIKQMWDTKTLGLRQHHCRKCG | 2.02
EWNIKQMWDTKTLGLRQHHCRKCG | 2.61
WWNIKQMWDTKTLGLRQHHCRKCG | 2.16
LWNIKQMWDTKTLGLRQHHCRKCG | 1.62
HWNIKQMWDTKTLGLRQHHCRKCG | 2.36
CWNIKQMWDTKTLGLRQHHCRKCG | 2.65
RWNIKQMWDTKTLGLRQHHCRKCG | 1.54
KWNIKQMWDTKTLGLRQHHCRKCG | 2.45
VWNIKQMWDTKTLGLRQHHCRKCG | 1.97

Variant | protein stability index
FWNIFQMWDTKTLGLRQHHCRKCG | 2.33
FWNITQMWDTKTLGLRQHHCRKCG | 1.97
FWNIEQMWDTKTLGLRQHHCRKCG | 2.43
FWNIVQMWDTKTLGLRQHHCRKCG | 1.69
FWNIQQMWDTKTLGLRQHHCRKCG | 2.03
FWNIAQMWDTKTLGLRQHHCRKCG | 1.97
FWNICQMWDTKTLGLRQHHCRKCG | 1.79
FWNIPQMWDTKTLGLRQHHCRKCG | 2.17
FWNIKQMWDTMTLGLRQHHCRKCG | 1.94
FWNIKQMWDTHTLGLRQHHCRKCG | 1.8
FWNIKQMWDTGTLGLRQHHCRKCG | 2.08
FWNIKQMWDTPTLGLRQHHCRKCG | 2.2
FWNIKQMWDTSTLGLRQHHCRKCG | 2.57
FWNIKQMWDTYTLGLRQHHCRKCG | 1.77
FWNIKQMWDTNTLGLRQHHCRKCG | 2.27
FWNIKQMWDTDTLGLRQHHCRKCG | 2.37
FWNIKQMWDTRTLGLRQHHCRKCG | 1.27
FWNIKQMWDTETLGLRQHHCRKCG | 3.03
FWNIKQMWDTTTLGLRQHHCRKCG | 2.21
FWNIKQMWDTATLGLRQHHCRKCG | 2.14
FCNIKQMWDTKTLGLRQHHCRKCG | 1.14
FQNIKQMWDTKTLGLRQHHCRKCG | 1.75
FYNIKQMWDTKTLGLRQHHCRKCG | 2.74
FDNIKQMWDTKTLGLRQHHCRKCG | 2.19

Variant | protein stability index
FFNIKQMWDTKTLGLRQHHCRKCG | 2.55
FLNIKQMWDTKTLGLRQHHCRKCG | 2.47
FRNIKQMWDTKTLGLRQHHCRKCG | 2.82
FINIKQMWDTKTLGLRQHHCRKCG | 2.41
FHNIKQMWDTKTLGLRQHHCRKCG | 1.43
FGNIKQMWDTKTLGLRQHHCRKCG | 1.47
FMNIKQMWDTKTLGLRQHHCRKCG | 2.32
FWNIKQMWDTKYLGLRQHHCRKCG | 2.72
FWNIKQMWDTKGLGLRQHHCRKCG | 1.77
FWNIKQMWDTKILGLRQHHCRKCG | 1.63
FWNIKQMWDTKALGLRQHHCRKCG | 2.29
FWNIKQMWDTKFLGLRQHHCRKCG | 2.11
FWNIKQMWDTKRLGLRQHHCRKCG | 2.73
FWNIKQMWDTKPLGLRQHHCRKCG | 1.98
FWNIKQMWDTKQLGLRQHHCRKCG | 2.39
FWNIKQRWDTKTLGLRQHHCRKCG | 2.58
FWNIKQTWDTKTLGLRQHHCRKCG | 1.69
FWNIKQEWDTKTLGLRQHHCRKCG | 2.48
FWNIKQIWDTKTLGLRQHHCRKCG | 2.15
FWNIKQFWDTKTLGLRQHHCRKCG | 1.77
